Results from patent publication US20170355757A1 (Regeneron, published 2017).

T1: monkey C5-mmh (monkey, UniProt P01031 19-1676 (human entry), limits assumed)
T1 construct: recombinant, with C-terminal myc-myc-hexahistidine tag
T1 chain: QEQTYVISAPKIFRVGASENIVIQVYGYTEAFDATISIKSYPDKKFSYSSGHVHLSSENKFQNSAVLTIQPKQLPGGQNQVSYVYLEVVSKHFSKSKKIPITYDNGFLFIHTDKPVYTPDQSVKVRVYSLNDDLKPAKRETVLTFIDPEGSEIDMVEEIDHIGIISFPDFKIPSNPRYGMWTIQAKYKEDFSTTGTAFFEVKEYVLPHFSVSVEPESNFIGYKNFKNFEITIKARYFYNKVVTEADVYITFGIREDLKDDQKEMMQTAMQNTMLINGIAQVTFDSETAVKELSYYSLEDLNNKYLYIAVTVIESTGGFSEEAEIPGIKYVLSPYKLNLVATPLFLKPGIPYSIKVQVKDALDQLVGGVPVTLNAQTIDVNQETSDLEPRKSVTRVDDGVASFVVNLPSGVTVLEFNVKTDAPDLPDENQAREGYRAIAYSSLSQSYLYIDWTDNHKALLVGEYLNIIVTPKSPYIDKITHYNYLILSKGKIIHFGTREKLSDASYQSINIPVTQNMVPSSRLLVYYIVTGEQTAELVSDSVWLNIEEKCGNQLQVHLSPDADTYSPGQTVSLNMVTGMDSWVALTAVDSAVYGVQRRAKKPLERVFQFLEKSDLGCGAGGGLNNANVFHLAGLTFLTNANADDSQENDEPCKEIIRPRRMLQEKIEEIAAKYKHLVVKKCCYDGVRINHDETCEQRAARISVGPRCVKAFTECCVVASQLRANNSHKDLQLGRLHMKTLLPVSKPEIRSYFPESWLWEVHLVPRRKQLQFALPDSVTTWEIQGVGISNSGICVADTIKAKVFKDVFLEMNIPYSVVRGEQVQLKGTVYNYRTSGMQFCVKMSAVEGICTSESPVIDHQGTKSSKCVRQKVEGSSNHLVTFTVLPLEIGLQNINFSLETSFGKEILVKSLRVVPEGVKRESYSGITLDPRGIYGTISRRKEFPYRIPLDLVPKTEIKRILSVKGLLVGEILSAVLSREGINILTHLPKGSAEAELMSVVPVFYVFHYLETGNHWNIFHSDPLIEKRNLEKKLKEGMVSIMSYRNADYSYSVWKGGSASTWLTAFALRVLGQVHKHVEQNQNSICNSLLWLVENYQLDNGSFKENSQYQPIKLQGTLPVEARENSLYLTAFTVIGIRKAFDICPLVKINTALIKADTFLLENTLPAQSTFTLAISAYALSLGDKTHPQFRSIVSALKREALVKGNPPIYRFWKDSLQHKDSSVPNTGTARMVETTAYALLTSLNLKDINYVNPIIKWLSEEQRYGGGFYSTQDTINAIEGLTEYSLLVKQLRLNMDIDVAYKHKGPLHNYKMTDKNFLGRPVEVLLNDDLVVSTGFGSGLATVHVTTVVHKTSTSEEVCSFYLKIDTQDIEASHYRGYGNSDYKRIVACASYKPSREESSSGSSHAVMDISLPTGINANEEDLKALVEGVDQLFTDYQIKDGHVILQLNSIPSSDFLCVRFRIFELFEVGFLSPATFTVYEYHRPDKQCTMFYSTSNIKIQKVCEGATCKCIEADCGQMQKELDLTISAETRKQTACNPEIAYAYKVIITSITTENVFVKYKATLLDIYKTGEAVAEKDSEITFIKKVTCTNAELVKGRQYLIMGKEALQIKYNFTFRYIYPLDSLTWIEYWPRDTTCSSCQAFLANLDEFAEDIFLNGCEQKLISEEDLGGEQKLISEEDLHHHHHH

B1: H4H12176P2 (antibody, human IgG4, V domains shown)
VH: EVQLVESGGGLVQPGGSLRLSCAASGFHSNRYWMDWVRQAPGKGLEWVANIKQDGSEENYVDSVKGRFTISRDNAKNSLYLQMNSLRAEDTAVYYCARDRSTSWVPYWFFDLWGRGTLVTVSS
VL: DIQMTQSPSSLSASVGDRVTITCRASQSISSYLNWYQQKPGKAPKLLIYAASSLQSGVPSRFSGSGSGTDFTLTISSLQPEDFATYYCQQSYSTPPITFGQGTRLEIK
notes: H4H: human IgG4 Fc with S108P hinge mutation
B2: H4H12183P2 (antibody, human IgG4, V domains shown)
VH: QVQLQESGPALVKPSQTLSLTCTVSGGSIIRGSTYWSWVRQFPGKGLEWIGYSYYSGTAYYNPSLESRATISVDTSKNQFSLNLKSVTAADTAVYYCTREIGVAGLFDIWGQGTLVTVSS
VL: not shown
notes: as for B1
B3: H4H12169P (antibody, human IgG4, V domains shown)
VH: EVQLVESGGGLAQPGGSLRLSCAASGFTFRSYAMSWVRQAPGKGPEWVSGIGGNGVTTYYADSVKGRFTISRDNSKNTLFLQMNSLRAEDTAVYYCVQGGLGGYFTGYWGQGTLVTVSS
VL: DIQMTQSPSSLSASVGDRVTITCRASQSISTYLNWYQQNPGKAPKLLIFDASSLQSGVPSRFSGSGSGTDFTLTIRGLQPEDFATYYCQQSYSAPLTFGGGTKVEIK
notes: as for B1
B4: H4H12161P (antibody, human IgG4, V domains shown)
VH: EVQLVESGGDLVQPGGSLRLSCAASGFTFSDHYMDWVRQAPGKGLDWIGRIRNKANAYNTEYAASVRGRFTISRDDSQNLLYLQMNSLKTDDTAVYYCVRVWNYAYFAMDVWGQGTTVTVSS
VL: DIQMTQSPSSLSASVGDRVTITCRSSQNIGIFLNWYQQKPGEAPNLLISAASSLHSGVPSRFSGSGSGTDFTLTIGSLQPEDFATYYCQQTYNTIFTFGPGTKVDIK
notes: as for B1

What was measured:
human C5 [1] = target: T2, human C5 (human, UniProt P01031 19-1676); assay: cell-based or functional assay
African green monkey C5 [2] = target: T3, African green monkey C5 (African green monkey); assay: cell-based or functional assay
human C5 R885H-mmh = human C5 R885H-mmh (human, UniProt P01031 19-1676); assay: cell-based or functional assay
human C5 R885C-mmh = human C5 R885C-mmh (human, UniProt P01031 19-1676); assay: cell-based or functional assay
human C5 [3] = target: T2, human C5; assay: cell-based or functional assay; remark: listed apart in the source
African green monkey C5 [4] = target: T3, African green monkey C5; assay: cell-based or functional assay; remark: listed apart in the source
Cynomolgus monkey C5 = Cynomolgus monkey C5 (cynomolgus monkey, UniProt A0A2K5U1T1 19-1676); assay: cell-based or functional assay
human C5 [5] = target: T2, human C5; assay: SPR (Biacore), mAb captured, dissociation of human C5 at pH7.4 vs pH6.0, 37°C
Procedure: Effect of pH on the rate of dissociation of recombinant human C5 bound to purified anti-C5 monoclonal antibodies was determined using a real-time surface plasmon resonance biosensor using a Biacore T200 instrument. The Biacore sensor surface was first derivatized by amine coupling with a monoclonal mouse anti-human Fc antibody (GE, # BR-1008-39) to capture anti-C5 monoclonal antibodies expressed with human IgG4 Fc. All Biacore binding studies were performed using two running buffers PBS-T, pH7.4 (0.01M Na₂HPO₄/NaH₂PO₄, 0.15M NaCl, 0.05% v/v Tween-20, adjusted to pH7.4) and PBS-T, pH6.0 (0.01M Na₂HPO₄/NaH₂PO₄, 0.15M NaCl, 0.05% v/v Tween-20, adjusted to pH6.0). […] Binding dissociative half-lives (t %) were calculated from kd as: […]

monkey C5-mmh [6] = target: T1, monkey C5-mmh; assay: SPR (Biacore), mAb captured, dissociation of monkey C5 at pH7.4 vs pH6.0, 25°C
monkey C5-mmh [7] = target: T1, monkey C5-mmh; assay: SPR (Biacore), mAb captured, dissociation of monkey C5 at pH7.4 vs pH6.0, 37°C

| Binder | IC50, inhibition of CDC of Daudi cells, 1.66% human serum (human C5 [1]) | IC50, inhibition of CDC of Daudi cells, 1.66% African Green monkey serum (African green monkey C5 [2]) | IC50, inhibition of CDC of Daudi cells, C5 depleted human serum and 6.6 nM C5 Variant R885H (human C5 R885H-mmh) | IC50, inhibition of CDC of Daudi cells, C5 depleted human serum and 6.6 nM C5 Variant R885C (human C5 R885C-mmh) | Human AP % Max Inhibition, hemolysis assay, NHS (human C5 [3]) | Human AP IC50, hemolysis assay, NHS (human C5 [3]) | Human CP % Max Inhibition, hemolysis assay, NHS (human C5 [3]) | Human CP IC50, hemolysis assay, NHS (human C5 [3]) | AGM AP % Max Inhibition, hemolysis assay, 5% serum (African green monkey C5 [4]) | AGM CP % Max Inhibition, hemolysis assay, 5% serum (African green monkey C5 [4]) | AGM Serum AP IC50, hemolysis assay, 5% serum (African green monkey C5 [4]) | AGM Serum CP IC50, hemolysis assay, 5% serum (African green monkey C5 [4]) | Cyno AP % Max Inhibition, hemolysis assay, 5% serum (Cynomolgus monkey C5) | Cyno CP % Max Inhibition, hemolysis assay, 5% serum (Cynomolgus monkey C5) | Cyno Serum AP IC50, hemolysis assay, 5% serum (Cynomolgus monkey C5) | Cyno Serum CP IC50, hemolysis assay, 5% serum (Cynomolgus monkey C5) | t½ Ratio pH7.4/pH6.0 (human C5 [5]) | t½ Ratio pH7.4/pH6.0 (monkey C5-mmh [6]) | t½ Ratio pH7.4/pH6.0 (monkey C5-mmh [7]) |
| --- | --- | --- | --- | --- | --- | --- | --- | --- | --- | --- | --- | --- | --- | --- | --- | --- | --- | --- | --- |
| B1 | 2.7 nM | 3.5 nM | 2.1 nM | 1.3 nM | 69.9% | 16.5 nM | 94.1% | 4.58 nM | 83.2% | 91% | 47.7 nM | 30.4 nM | 99.3% | 97.5% | 7.7 nM | 14.7 nM | ≤ 0.4 | ≤ 9.1 | 2.8 |
| B2 | 1.7 nM | 14 nM | 1.2 nM | 0.45 nM | 78.9% | 160 nM | 99.9% | 5.88 nM | – | – | – | – | 100% | 64.6% | 29.6 nM | 142 nM | – | 5.8 | 2.4 |
| B3 | 1.7 nM | 2.9 nM | 1.3 nM | 0.67 nM | 44.5% | 20 nM | 98.3% | 2.36 nM | 45.7% | 43.3% | 91.5 nM | 34.4 nM | 96.3% | 92.8% | 7.95 nM | 19.9 nM | – | 3.4 | 2 |
| B4 | 2.4 nM | 2.6 nM | 1.8 nM | 1 nM | 56.1% | 25.5 nM | 93.7% | 2.56 nM | 35.7% | 78.9% | 47.5 nM | 31.9 nM | 98.4% | 100% | 7.8 nM | 27.9 nM | ≤ 0.7 | – | 10.7 |
